The nature of series [1]: Antibody buffering of lysozyme: total 14C-lysozyme in rat plasma. The series is classed as in vivo. The procedure: (§1) Rats (300 g Sprague-Dawley males, Zivic Laboratories, Zelionople, Pa.) were implanted with a jugular vein cannula. The rats were freely moving throughout the experiment and were allowed access to food and water. Samples were prepared for infusion consisting of 43 μg ^14C-lysozyme with or without 450 μg D1.3 antibody. The volume was brought to 1 ml using sterile normal saline and the sample was incubated at 37° C. prior to use. The sample was infused through the jugular cannula over 5 minutes using an HP infusion pump. Following the infusion, the cannula was flushed with 0.2 ml of heparinized saline (250 units/ml) to reduce the risk of clotting. […] Blood samples (0.5 ml) were withdrawn from the cannula at various timepoints. The blood was immediately centrifuged to separate out the plasma. Plasma (0.1 ml) was mixed with 5 ml scintillation fluid and counted. Another 0.1 ml was used in bound vs. free lysozyme experiments described herein. The cellular pellet was mixed with scintillation fluid and counted also.
Sprague-Dawley rats implanted with a jugular cannula were infused with 43 μg ^14C-lysozyme and either 450 μg or 900 μg of D1.3 antibody. The volume infused was brought up to 1 ml using sterile normal saline. The samples were prepared and infused and timepoints were taken and analyzed as described above. Bound vs. free separation analyses were not performed.
Sprague-Dawley rats implanted with a jugular cannula were infused with 450 μg of D1.3 antibody and either 43 μg or 430 μg of ^14C-lysozyme. The samples were prepared, infused, and timepoints were taken and analyzed as described above.
Two samples were prepared for infusion. The first sample, consisting of 450 μg D1.3 antibody diluted to 0.5 ml with sterile normal saline, was infused over 4 minutes using an HP infusion pump. The rat was allowed to move freely in its cage for 10 minutes to allow the antibody time to equilibrate within the circulation. Then the second sample, consisting of 43 μg ^14C-lysozyme made up to 0.5 ml using sterile normal saline, was infused over 4 minutes. The end of the second infusion was designated as time zero (0). Blood samples were taken and analyzed as described above.
To determine the pharmacokinetic profile of lysozyme using a radioactive method of lysozyme detection, ^14C-lysozyme was infused through a jugular cannula into the bloodstream of a rat. Lysozyme elimination was followed through blood sampling at various time intervals spanning 4 hours. The plasma was collected after centrifugation and subjected to scintillation counting. […] Each rat in these and in the following studies was used only once to limit the possibility of an immune response to either the lysozyme or the antibody.

Series [2] can be described thus: Antibody buffering of lysozyme: free lysozyme in plasma after Protein A-Sepharose separation. The class given is in vivo, rat. To be noted: lysozyme administered with D1.3, compared with lysozyme alone. The method, then: as §1
Following blood sample centrifugation to separate out the plasma, 0.1 ml of plasma was loaded onto a 1.5 ml Protein A-Sepharose mini-column. The column was washed with 3 ml of PBS in 0.5 ml increments followed by 3 ml of 100 mM citric acid in 0.5 ml increments. The PBS (free lysozyme) and citric acid (antibody-bound lysozyme) fractions were collected separately for each timepoint. […]

With “lysozyme: hen egg lysozyme radioactively labeled with 14C, model protein ligand”, the “plasma β-half life of lysozyme” value was 16.4 min in series [1] (14C-lysozyme administered alone, jugular infusion); 42.8 min in series [1] (14C-lysozyme with equimolar D1.3); 61.3 min in series [1] (14C-lysozyme with two times the molar amount of D1.3). Moreover, the “radioactivity in the cellular pellet of blood” value in series [1] (14C-lysozyme alone or with D1.3) is reported as “Little radioactivity”. Also, the “total lysozyme level in plasma at later timepoints relative to equimolar group” value in series [1] (D1.3 with ten times the molar concentration of 14C-lysozyme) is listed as “about twice as high”. In addition, the “total lysozyme concentration in plasma after sequential administration” value in series [1] (equimolar lysozyme infused ten minutes after D1.3) was “quickly equilibrated to a level very similar to that attained when the D1.3 and lysozyme were administered together”. Also, the “free lysozyme pool in plasma” value in series [2] is reported as “remained at a more constant level”.

For the origin of these results see patent publication US20160082105A1, “Antibody Buffering of a Ligand in Vivo” (ARROWSMITH TECHNOLOGIES CORPORATION, priority 2004, published 2016).
